In the series the test system is MBP::P1 (Wheat streak mosaic virus (isolate Sidney 81)). Description: EMSA.

Read-outs that look alike come from different tables or passages of the source.

21-nt GFP ds-siRNA had a K half (5' phosphate) of 0.03 nmol. For the substance 24-nt GFP ds-siRNA, the K half (5' phosphate) came out at 0.03 nmol. As for 180-nt GFP dsRNA, the K half stood at 0.03 nmol.

These data come from article PMC6563293.
